Usually koff stands for the rate constant with which the complex falls apart. As a reminder, the Kd is the constant that tells how readily two partners part at equilibrium. As a reminder, the kon is the rate constant with which the complex forms.

We go through 13 molecules from patent publication US20180016327A1 (Chugai, published 2018).

In assay [1] the target is T1, human C5 (human, UniProt P01031 19-673; P01031 678-1676, Beta and alpha chains are disulfide-linked and the protein is glycosylated.).
T1 construct: Either in-house recombinant C5 or plasma derived C5 (CALBIOCHEM) was used; also called recombinant human C5; plasma derived human C5
Put plainly: Biacore, 37 degrees C; antibody captured, human C5 injected (concentration not given); association pH 7.4, dissociation pH 7.4 (circles) or pH 5.8 (triangles).

The target in assay [2] is T1, human C5. Put plainly: Biacore, captured antibody, pH 7.4, 37 C.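 Note: biacore binding response of anti-C5 antibody light chain variants captured on chip with human C5 injected, ACES running buffer containing 1.2 mM CaCl₂, parent light chain antibody set to 100.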 On the technique in general: Surface plasmon resonance follows binding to a sensor surface in real time, without labels.
The target of assay [3] is T2, cynomolgus monkey C5 (cynomolgus monkey, limits assumed).
T2 construct: also called recombinant cynomolgus monkey C5
T2 chain 1: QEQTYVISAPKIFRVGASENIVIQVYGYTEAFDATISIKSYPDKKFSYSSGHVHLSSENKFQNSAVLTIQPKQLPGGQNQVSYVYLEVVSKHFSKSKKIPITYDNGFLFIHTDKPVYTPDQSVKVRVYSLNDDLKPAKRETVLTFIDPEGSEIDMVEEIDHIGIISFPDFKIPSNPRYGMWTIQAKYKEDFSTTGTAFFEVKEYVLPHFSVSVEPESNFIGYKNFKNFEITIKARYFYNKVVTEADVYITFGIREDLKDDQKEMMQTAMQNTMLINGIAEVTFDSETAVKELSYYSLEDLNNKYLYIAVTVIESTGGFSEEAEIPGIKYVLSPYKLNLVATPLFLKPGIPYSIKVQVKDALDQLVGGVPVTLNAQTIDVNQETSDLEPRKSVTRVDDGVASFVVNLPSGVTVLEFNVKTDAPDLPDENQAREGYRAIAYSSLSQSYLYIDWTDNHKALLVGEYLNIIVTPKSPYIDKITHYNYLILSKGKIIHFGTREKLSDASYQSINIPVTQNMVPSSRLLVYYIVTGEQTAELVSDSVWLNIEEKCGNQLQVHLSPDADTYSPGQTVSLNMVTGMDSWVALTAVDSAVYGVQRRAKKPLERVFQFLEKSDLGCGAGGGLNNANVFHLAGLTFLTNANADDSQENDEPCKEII
T2 chain 2: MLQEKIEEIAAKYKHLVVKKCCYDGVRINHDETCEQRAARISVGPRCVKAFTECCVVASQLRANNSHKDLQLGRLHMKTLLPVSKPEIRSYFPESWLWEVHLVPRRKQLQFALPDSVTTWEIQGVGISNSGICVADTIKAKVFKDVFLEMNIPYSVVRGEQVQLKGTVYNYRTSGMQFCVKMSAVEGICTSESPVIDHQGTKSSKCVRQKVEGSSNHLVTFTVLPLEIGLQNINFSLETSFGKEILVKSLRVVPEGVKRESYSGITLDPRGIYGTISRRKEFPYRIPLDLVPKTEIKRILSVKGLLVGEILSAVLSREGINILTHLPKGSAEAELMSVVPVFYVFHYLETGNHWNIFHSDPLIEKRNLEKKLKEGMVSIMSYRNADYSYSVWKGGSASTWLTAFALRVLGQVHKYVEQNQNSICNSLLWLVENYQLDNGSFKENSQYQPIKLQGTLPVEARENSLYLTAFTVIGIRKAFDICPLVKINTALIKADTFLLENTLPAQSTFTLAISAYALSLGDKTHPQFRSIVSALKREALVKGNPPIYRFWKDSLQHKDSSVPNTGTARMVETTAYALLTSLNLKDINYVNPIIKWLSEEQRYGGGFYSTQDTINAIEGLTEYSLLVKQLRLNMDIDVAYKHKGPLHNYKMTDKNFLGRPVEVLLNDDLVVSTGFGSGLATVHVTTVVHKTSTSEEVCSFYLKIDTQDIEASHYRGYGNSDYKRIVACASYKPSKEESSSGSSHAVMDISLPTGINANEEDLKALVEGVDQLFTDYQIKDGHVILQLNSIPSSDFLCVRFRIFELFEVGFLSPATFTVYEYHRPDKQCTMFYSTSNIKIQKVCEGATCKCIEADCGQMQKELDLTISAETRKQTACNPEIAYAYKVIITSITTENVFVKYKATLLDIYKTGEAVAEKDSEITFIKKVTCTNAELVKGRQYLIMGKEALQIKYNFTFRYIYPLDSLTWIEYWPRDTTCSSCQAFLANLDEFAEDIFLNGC
The assay is described as follows: Biacore T200, 37 C, kd from the dissociation phase only, association at pH 7.4 and dissociation at pH 5.8.
Protocol: (§1) Anti-C5 antibodies were captured on an immobilized molecule, and then human C5 was injected. The running buffers used were ACES pH 7.4 and pH 5.8 (20 mM ACES, 150 mM NaCl, 1.2 mM CaCl₂, 0.05% Tween 20). Kinetics parameters at both pH conditions were determined by fitting the sensorgrams with 1:1 binding -RI (without bulk effect adjustment) model using Biacore T200 Evaluation software, version 2.0 (GE Healthcare).

Assay [4] addresses T1, human C5. The assay is described as follows: Biacore T200, captured antibody, recombinant human C5 injected, pH 7.4, 37 C, 1:1 fit.
Protocol: as §1
(§2) These variants were examined for the binding against human C5.
Assay [5] addresses T2, cynomolgus monkey C5. Put plainly: Biacore T200, 37 C, kd from the dissociation phase only, dissociation at pH 7.4.
Protocol: as §1
Assay [6] addresses T1, human C5. Described as above.
Protocol: as §1, §2
Assay [7] deals with T2, cynomolgus monkey C5. Put plainly: Biacore T200, captured antibody, cynomolgus monkey C5 injected, pH 7.4, 37 C, 1:1 fit.
Protocol: as §1
For assay [8], the target named is T1, human C5. Put plainly: Biacore T200, 37 C, kd from the dissociation phase only, association at pH 7.4 and dissociation at pH 5.8.
Protocol: as §1, §2

Changes are numbered by the printed parent chain.

B1: antibody comprising heavy chain of clone 18 and light chain of 20L065 (antibody, V domains shown)
VH: QVQLVQSGAEVKKPGSSVKVSCKASGGTFSSYAISWVRQAPGQGLEWMGGIIPIFGTANYAQKFQGRVTITADESTSTAYMELSSLRSEDTAVYYCARQLYGYYELDIWGQGTLVTVSS
VL: DIQMTQSPSSLSASVGDRVTITCRASQSIHDDLAWYQQKPGKAPKLLIYEASNLQSGVPSRFSGSGSGTDFTLTISSLQPEDFATYYCQQYSSYPHTFGQGTKVEIK
notes: also called clone 18 with common light chain
For B1, in assay [1], the binding result is listed as “binds”.

B2: CFP0017 17L 31H (antibody, V domains shown)
VH: B1 VH with Q99G, L100G, Y101W, G102W, Y103G, Y104G, E105A, I108Y
VL: B1 VL with H30E, D31H, E50H, N53S, Y91S, S92D, H96L
Consider B2, for which the “% binding (parent = 100)” value in assay [2] amounted to 3.4%.

B3: CFP0017 17L 93R (antibody, V domains shown)
VH: B1 VH with Q99G, L100G, Y101W, G102W, Y103G, Y104G, E105A, I108Y
VL: B1 VL with H30E, E50H, N53S, Y91S, S92D, S93R, H96L
On to B3, for which, in assay [2], the “% binding (parent = 100)” value stood at 84.9%.

B4: CFP0017 17L 93N (antibody, V domains shown)
VH: B1 VH with Q99G, L100G, Y101W, G102W, Y103G, Y104G, E105A, I108Y
VL: B1 VL with H30E, E50H, N53S, Y91S, S92D, S93N, H96L
Consider B4, for which, in assay [2], the “% binding (parent = 100)” value stood at 63%.

B5: CFP0017 17L 96Y (antibody, V domains shown)
VH: B1 VH with Q99G, L100G, Y101W, G102W, Y103G, Y104G, E105A, I108Y
VL: B1 VL with H30E, E50H, N53S, Y91S, S92D, H96Y
Consider B5, for which the “% binding (parent = 100)” value in assay [2] was -11.1%.

B6: CFP0017 17L 31A (antibody, V domains shown)
VH: B1 VH with Q99G, L100G, Y101W, G102W, Y103G, Y104G, E105A, I108Y
VL: B1 VL with H30E, D31A, E50H, N53S, Y91S, S92D, H96L
As to B6, in assay [2], the “% binding (parent = 100)” value is 0.6%.

B7: CFP0017 17L 93D (antibody, V domains shown)
VH: B1 VH with Q99G, L100G, Y101W, G102W, Y103G, Y104G, E105A, I108Y
VL: B1 VL with H30E, E50H, N53S, Y91S, S92D, S93D, H96L
For B7, in assay [2], the “% binding (parent = 100)” value is 22.9%.

B8: CFP0017 17L 94S (antibody, V domains shown)
VH: B1 VH with Q99G, L100G, Y101W, G102W, Y103G, Y104G, E105A, I108Y
VL: B1 VL with H30E, E50H, N53S, Y91S, S92D, Y94S, H96L
For the molecule B8, the “% binding (parent = 100)” value in assay [2] is -8.4%.

B9: CFP0017 17L 94T (antibody, V domains shown)
VH: B1 VH with Q99G, L100G, Y101W, G102W, Y103G, Y104G, E105A, I108Y
VL: B1 VL with H30E, E50H, N53S, Y91S, S92D, Y94T, H96L
Consider B9, for which the “% binding (parent = 100)” value in assay [2] was 4.3%.

B10: CFP0017 17L 93G (antibody, V domains shown)
VH: B1 VH with Q99G, L100G, Y101W, G102W, Y103G, Y104G, E105A, I108Y
VL: B1 VL with H30E, E50H, N53S, Y91S, S92D, S93G, H96L
On to B10, for which, in assay [2], the “% binding (parent = 100)” value stood at 51%.

B11: CFP0017 17L 53T (antibody, V domains shown)
VH: B1 VH with Q99G, L100G, Y101W, G102W, Y103G, Y104G, E105A, I108Y
VL: B1 VL with H30E, E50H, N53T, Y91S, S92D, H96L
Consider B11, for which, in assay [2], the “% binding (parent = 100)” value was 109%.

B12: CFP0019 (antibody, V domains shown)
VH: QVQLQESGPGLVKPSETLSLTCAVSGYSISSGYYWGWIRQPPGKGLEWIGSIYHSGSTYYNPSLKSRVTISVDTSKNQFSLKLSSVTAADTAVYYCARYYVWLGGPTYMDYWGQGTLVTVSS
VL: B1 VL with H30E, E50H, N53T, Y91S, S92D, S93G, H96L
notes: IgG format
Turning to B12, the “% binding (parent = 100)” value in assay [2] was found to be 100%.

B13: optimized 20//18 (bispecific antibody, V domains shown)
VH 1: QVQLQESGPGLVKPSETLSLTCAVSGYSISSGYYWGWIRQPPGKGLEWIGSIYHSGSTYYNKKLKSRVTISVDTSKNQFSLKLSSVTAADTAVYYCARHDPTWYHHGYFDYWGQGTLVTVSS
VH 2: B1 VH with A33S
VL: B1 VL with D31N, N53E, Q90H, H96Y
notes: Bispecific IgG with the common light chain 20L233
As to B13, the koff in assay [3] turned out to be 0.107 s⁻¹; in assay [4], 9.72e-05 s⁻¹; in assay [5], 0.000224 s⁻¹; in assay [6] it was 0.000104 s⁻¹; in assay [7] it was 0.000236 s⁻¹; in assay [8], 0.0594 s⁻¹. Also, the Kd was 0.268 nM in assay [4] and 0.664 nM in assay [7]. For the same molecule, the kon in assay [4] is 362000 M⁻¹ s⁻¹; in assay [7], 355000 M⁻¹ s⁻¹.
